Paper PMC9776037

Key:
[1] = biological target: α2 portion of the human α2δ1 protein (voltage-sensitive calcium channel subunit) (human); assay: localized surface plasmon resonance (LSPR); α2-functionalized sensors incubated overnight with full-length PLN (10 nM) or PLN Dm III-2 (100 nM), no GBP; Δλ_LSPR
[2] = biological target: α2 portion of the human α2δ1 protein (voltage-sensitive calcium channel subunit) (human); assay: localized surface plasmon resonance (LSPR); α2 amide-coupled to gold triangular nanoprisms on glass; sensors incubated with 1 × 10^−16 to 1 × 10^−8 M PLN or PLN domains in PBS pH 7.2; Δλ_LSPR by UV-visible spectroscopy; KD from Hill-Langmuir fit with extrapolated Bmax

Substance	Δλ LSPR [1] [nm]	Kd [2] [µM]
Perlecan domain III-2, cysteine-free globular region (laminin IV-A2) (domain or fragment)	12.7	8e-05
Perlecan domain IV-1 (PLN Dm IV-1) (domain or fragment)		0.14
Perlecan domain IV-3 (PLN Dm IV-3) (domain or fragment)		280
Perlecan domain IV-2 (PLN Dm IV-2) (domain or fragment)		430
